For one molecule, EC50 killing capacity results are on record in EP4328239A1 (Max-Delbrück-Centrum für Molekulare Medizin in der …, dated 2024).

The assay concerns the target … (SEQ ID NO: 3) in complex with HLA-B*44:03 (human). The assay is described as follows: cell-based or functional assay.

B1: TCR6 (TCR, V domains shown, not shown: a dimerising Fc or GST)
V domain 1: QKEVEQNSGPLSVPEGAIASLNCTYSDRGSQSFFWYRQYSGKSPELIMFIYSNGDKEDGRFTAQLNKASQYVSLLIRDSQPSDSATYLCAVSSNTGKLIFGQGTTLQVKP
V domain 2: DAGVIQSPRHEVTEMGQEVTLRCKPISGHNSLFWYRQTMMRGLELLIYFNNNVPIDDSGMPEDRFSAKMPNASFSTLKIQPSEPRDSAVYFCASKWGQGAGDTQYFGPGTRLTVL
On to B1, for which the EC50 killing capacity was 1.4 E:T ratio.
